Measured values as given in the Immune Epitope Database (IEDB).
pKd: −log10 of the molar value.

Assays:
HLA-A*02:19 = test: IEDB peptide-MHC binding, purified MHC/competitive/fluorescence; filed as Kd, often an IC50 or EC50 that approximates it; ≥ and ≤ were set here for values at or beyond the usual limits of such assays
HLA-B*51:01 = test: as above
HLA-A*24:03 = test: as above
HLA-B*18:01 [1] = test: as above
HLA-A*23:01 = test: as above
HLA-B*27:03 = test: as above
HLA-A*02:16 = test: as above; details: source organism: Bacillus anthracis str. A0488
HLA-B*15:01 [2] = test: as above
HLA-A*03:01 = test: as above
HLA-B*46:01 [3] = test: as above
HLA-A*29:02 = test: as above
HLA-B*15:17 [4] = test: as above; details: source organism: Bacillus anthracis str. A0488
HLA-A*69:01 [5] = test: as above; details: source organism: Bacillus anthracis str. A0488
HLA-A*02:01 [6] = test: as above
HLA-A*68:02 [7] = test: as above
HLA-A*26:01 [8] = test: as above
HLA-B*57:01 [9] = test: as above
HLA-B*07:02 = test: IEDB peptide-MHC binding, purified MHC/direct/fluorescence; filed as Kd, often an IC50 or EC50 that approximates it; ≥ and ≤ were set here for values at or beyond the usual limits of such assays
HLA-B*18:01 [10] = test: as above
HLA-B*08:03 = test: as above; details: source organism: Ravn virus - Ravn, Kenya, 1987
HLA-B*15:01 [11] = test: as above
HLA-B*48:01 [12] = test: as above; details: source organism: Ebola virus - Mayinga, Zaire, 1976
HLA-B*39:01 [13] = test: as above
HLA-B*46:01 [14] = test: as above
HLA-B*38:01 = test: as above
HLA-B*58:01 = test: as above
HLA-A*02:01 [15] = test: as above
HLA-B*40:01 = test: as above
HLA-B*57:01 [16] = test: as above
HLA-A*01:01 = test: as above
HLA-A*26:02 [17] = test: IEDB peptide-MHC binding, purified MHC/competitive/fluorescence; filed as Kd, often an IC50 or EC50 that approximates it; ≥ and ≤ were set here for values at or beyond the usual limits of such assays; details: source organism: Zaire ebolavirus
HLA-B*39:01 [18] = test: as above; details: source organism: Giardia lamblia ATCC 50803
HLA-A*02:12 = test: as above; details: source organism: Giardia lamblia ATCC 50803
HLA-B*08:01 = test: IEDB peptide-MHC binding, purified MHC/direct/fluorescence; filed as Kd, often an IC50 or EC50 that approximates it; ≥ and ≤ were set here for values at or beyond the usual limits of such assays; details: source organism: Variola virus
HLA-B*15:17 [19] = test: as above; details: source organism: Aracatuba virus
HLA-B*27:05 = test: as above; details: source organism: Aracatuba virus
HLA-A*69:01 [20] = test: as above; details: source organism: Aracatuba virus
HLA-A*68:02 [21] = test: as above; details: source organism: Aracatuba virus
HLA-A*26:01 [22] = test: as above; details: source organism: Variola virus
HLA-B*08:02 = test: as above; details: source organism: Variola virus
HLA-A*26:02 [23] = test: as above; details: source organism: Variola virus
HLA-A*30:01 = test: IEDB peptide-MHC binding, purified MHC/competitive/fluorescence; filed as Kd, often an IC50 or EC50 that approximates it; ≥ and ≤ were set here for values at or beyond the usual limits of such assays; details: source organism: Rabbitpox virus
HLA-B*48:01 [24] = test: as above; details: source organism: Rabbitpox virus
[25] = source organism: Bacillus anthracis str. A0488
[26] = source organism: Ebola virus - Mayinga, Zaire, 1976
[27] = source organism: Zaire ebolavirus
[28] = source organism: Giardia lamblia ATCC 50803
[29] = source organism: Aracatuba virus

Q: With KQGDVFYTA as the sequence, how does the pKd (HLA-A*02:19; [25]) read?
A: Its pKd is no more than 4.70.

Q: And the pKd (HLA-B*51:01; [25])?
A: The pKd was no more than 4.70.

Q: What about the pKd (HLA-A*24:03; [25]) of the same sequence?
A: Its pKd is no more than 4.70.

Q: And the pKd (HLA-B*18:01 [1]; [25])?
A: The pKd was no more than 4.70.

Q: And the pKd (HLA-A*23:01; [25])?
A: Its pKd is no more than 4.70.

Q: What about the pKd (HLA-B*27:03; [25]) of the same sequence?
A: The pKd was no more than 4.70.

Q: What about the pKd (HLA-A*02:16) of the same sequence?
A: Its pKd is 7.29.

Q: And the pKd (HLA-B*15:01 [2]; [25])?
A: The pKd was no more than 4.70.

Q: And the pKd (HLA-A*03:01; [25])?
A: The pKd was no more than 4.70.

Q: What about the pKd (HLA-B*46:01 [3]; [25]) of the same sequence?
A: Its pKd is no more than 4.70.

Q: What about the pKd (HLA-A*29:02; [25]) of the same sequence?
A: Its pKd is no more than 4.70.

Q: What about the pKd (HLA-B*15:17 [4]) of the same sequence?
A: The pKd was no more than 4.70.

Q: What about the pKd (HLA-A*69:01 [5]) of the same sequence?
A: The pKd was no more than 4.70.

Q: And the pKd (HLA-A*02:01 [6]; [25])?
A: The pKd was no more than 4.70.

Q: What about the pKd (HLA-A*68:02 [7]; [25]) of the same sequence?
A: Its pKd is no more than 4.70.

Q: What about the pKd (HLA-A*26:01 [8]; [25]) of the same sequence?
A: The pKd was no more than 4.70.

Q: And the pKd (HLA-B*57:01 [9]; [25])?
A: Its pKd is no more than 4.70.

Q: SRTPSGKRL was tested. Which pKd (HLA-B*07:02; [26]) did it give?
A: The pKd was no more than 4.70.

Q: And the pKd (HLA-B*18:01 [10]; [26])?
A: The pKd was no more than 4.70.

Q: And the pKd (HLA-B*08:03)?
A: Its pKd is no more than 4.70.

Q: And the pKd (HLA-B*15:01 [11]; [26])?
A: The pKd was no more than 4.70.

Q: And the pKd (HLA-B*48:01 [12])?
A: The pKd was no more than 4.70.

Q: And the pKd (HLA-B*39:01 [13]; [26])?
A: Its pKd is no more than 4.70.

Q: And the pKd (HLA-B*46:01 [14]; [26])?
A: Its pKd is no more than 4.70.

Q: And the pKd (HLA-B*38:01; source organism: Ravn virus - Ravn, Kenya, 1987)?
A: The pKd was no more than 4.70.

Q: What about the pKd (HLA-B*58:01; [26]) of the same sequence?
A: Its pKd is no more than 4.70.

Q: And the pKd (HLA-A*02:01 [15]; [26])?
A: Its pKd is no more than 4.70.

Q: What about the pKd (HLA-B*40:01; [26]) of the same sequence?
A: Its pKd is no more than 4.70.

Q: And the pKd (HLA-B*57:01 [16]; [26])?
A: Its pKd is no more than 4.70.

Q: And the pKd (HLA-A*01:01; [26])?
A: The pKd was no more than 4.70.

Q: And the pKd (HLA-A*68:02 [7]; [27])?
A: The pKd was 5.51.

Q: What about the pKd (HLA-A*26:01 [8]; [27]) of the same sequence?
A: The pKd was 5.67.

Q: What about the pKd (HLA-A*26:02 [17]) of the same sequence?
A: The pKd was 5.55.

Q: STTTCEAGV was tested. Which pKd (HLA-A*02:19; [28]) did it give?
A: The pKd was no more than 4.70.

Q: What about the pKd (HLA-B*51:01; [28]) of the same sequence?
A: The pKd was no more than 4.70.

Q: What about the pKd (HLA-A*24:03; [28]) of the same sequence?
A: The pKd was no more than 4.70.

Q: And the pKd (HLA-B*18:01 [1]; [28])?
A: Its pKd is no more than 4.70.

Q: And the pKd (HLA-A*23:01; [28])?
A: Its pKd is no more than 4.70.

Q: And the pKd (HLA-B*27:03; [28])?
A: The pKd was no more than 4.70.

Q: And the pKd (HLA-B*15:01 [2]; [28])?
A: Its pKd is no more than 4.70.

Q: What about the pKd (HLA-B*39:01 [18]) of the same sequence?
A: The pKd was no more than 4.70.

Q: And the pKd (HLA-A*03:01; [28])?
A: The pKd was no more than 4.70.

Q: And the pKd (HLA-B*46:01 [3]; [28])?
A: The pKd was no more than 4.70.

Q: And the pKd (HLA-A*29:02; [28])?
A: The pKd was no more than 4.70.

Q: What about the pKd (HLA-A*02:01 [6]; [28]) of the same sequence?
A: The pKd was no more than 4.70.

Q: What about the pKd (HLA-A*26:01 [8]; [28]) of the same sequence?
A: The pKd was no more than 4.70.

Q: And the pKd (HLA-B*57:01 [9]; [28])?
A: Its pKd is no more than 4.70.

Q: And the pKd (HLA-A*02:12)?
A: The pKd was 6.55.

Q: Which results are given for YKEPNSIIL?
A: pKd (HLA-B*07:02; [29]): ≤ 4.70; pKd (HLA-B*18:01 [10]; [29]): ≤ 4.70; pKd (HLA-B*15:01 [11]; [29]): ≤ 4.70; pKd (HLA-B*39:01 [13]; [29]): 7.52; pKd (HLA-B*46:01 [14]; [29]): ≤ 4.70; pKd (HLA-B*08:01): ≤ 4.70; pKd (HLA-B*15:17 [19]): ≤ 4.70; pKd (HLA-B*27:05): ≤ 4.70; pKd (HLA-A*69:01 [20]): ≤ 4.70; pKd (HLA-B*38:01; source organism: Variola virus): 6.21; pKd (HLA-B*58:01; [29]): ≤ 4.70; pKd (HLA-A*02:01 [15]; [29]): ≤ 4.70; pKd (HLA-A*68:02 [21]): ≤ 4.70; pKd (HLA-B*40:01; [29]): ≤ 4.70; pKd (HLA-A*26:01 [22]): ≤ 4.70; pKd (HLA-B*08:02): ≤ 4.70; pKd (HLA-B*57:01 [16]; [29]): ≤ 4.70; pKd (HLA-A*01:01; [29]): ≤ 4.70; pKd (HLA-A*26:02 [23]): ≤ 4.70; pKd (HLA-A*30:01): ≤ 4.70; pKd (HLA-B*48:01 [24]): 6.65
